Laboratory results: publication PMC3764172

Molecular target: T1, PGN_0753 (HaeR) response regulator, His6-tagged (Porphyromonas gingivalis ATCC 33277) (UniProt B2RIS7)
T1 sequence: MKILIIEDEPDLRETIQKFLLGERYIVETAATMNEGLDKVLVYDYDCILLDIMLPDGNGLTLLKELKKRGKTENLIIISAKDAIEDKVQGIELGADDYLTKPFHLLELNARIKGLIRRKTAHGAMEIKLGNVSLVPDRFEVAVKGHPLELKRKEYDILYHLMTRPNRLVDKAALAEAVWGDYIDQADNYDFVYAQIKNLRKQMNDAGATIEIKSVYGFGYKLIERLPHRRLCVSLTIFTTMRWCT
Test: EMSA

Sequence | binding
TAAGTGATTGAAAGACTTCGTTTGCTGAGATTCGAGCAAATCGTCTTGGGACAAAGATATAAAAAAGTGCCACCGAATTTGCACCTCGTCCCCAAAACACAGGCGTAAAATATCCGCACATCCCGGGACTGCAAAGGGAGAGCATGCTATTTCAGGAAAAATTCAGTTTTACCATGTTATATTTGTAAAAGAAGATCAATCCAAACAGGGCTATCCAGATG (double strand) [haeR (PGN_0753) promoter] | binds
CATTTTGATGAAATTAGAATATGATTTTACTGTGTAGTACCCCTTCTGTATTTATGCATTATAAAGTCTTCTTGGGAGACAAAATTCACATAGAAACCGAAAGAAATACCACAATCGCAAATATATGCACTTTTCCTTTAAACGCGAATCAAAATATGCATAATATATTGCCCAAAAGCTGTCATTCGGATTGATTGATGGCCTCATATTGGGTTTGCA (double strand) [rgpA (PGN_1970) promoter] | binds
CCCTTGTCGCTTATATTGAAAACATGTTCTTTATAATCCGATACTCTTCTTAAATCGAATTTTTTCTCTAAATTGCGCCGCAACAAAACTCCTTGAGAAAAGTACCAATAGAAATAGAAGGTAGCATTTTGCCTTTAAATTCCTTTTCTTTTCTTGGATTGTTCTTGAAATGAATCTTATTTGTGGATCTTTTTTGTTTTTTTAACCCGGCCGTGGTTCTCTGAATCACGACCATAAATTGTTTTAAAGT (double strand) [kgp (PGN_1728) promoter] | binds
CGTATCCGGGTTATACGATCTGTCGTTTGGATATTGAAAATCATTTCTATCGGAACTATACGCTCCATATCGGTGCGGAGAACCTGTTCGATTATAAACCCAAAGCATTGGCATTCAATTCCCCGACATCACCCGGACGTATCATATACGGGTTGGTTCGGATCACTTTCTAATACGACTTATTTGCAACAGAAATATAATTCGCCACG (double strand) [hmuS upstream region] | binds
TAGCGTCATTCTTTTCATAGACTTTTCTTTTGCGTTAAACTTAAAATTATTACTGTTATGTTGTTTTCTTTTCTTCTCCGGTTTTACCCTAACCAAGGGAAGTCTCAAAAAGCCGCTACCGGCGTTAGACACAAGTCACGAAACTTCCACAACTGTCCTATGATACGGACAGCCACAAAACTAAATAAAAAAATGCAACCAGACTAATCCTATTATCC (double strand) [ragA (PGN_0293) promoter] | binds
